# Source: the RNAGym collection of RNA variant scans (doi:10.1073/pnas.2313332121)
# B1: TPR t1 (parent)
# chain: GACCAAUCUGCCCUCAGAGCUCGAGAACAUCUUCGGAUGCAGAGGAGGCAGGCUUCGGUGGCGCGAUAGCGCCAACGUCCUCAACCUCCAAUGCAUCCCACCACAUGAUGAUGCCUGAAGAGCCUUGGUUUUUUG
# Variants of: B1
# Experiment: polymerase ribozyme fitness, log enrichment relative to wild type (log ratio); higher = more active; in vitro selection for triplet polymerase activity
# How it was run: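 Streptavidin-bead capture of gel-excised extended constructs, followed by RT-PCR, closed a single triplicate in vitro selection round. That round began by annealing PCR-built, transcribed mutant libraries of each subunit of a heterodimeric triplet polymerase ribozyme with a biotinylated primer, the partner subunit and triplets, then incubating them frozen at −7 °C. After Illumina sequencing of inputs and outputs, genotypes needed ≥10 input reads and ≥1 read per output. Fitness is the base-2 logarithm of genotype enrichment over wild-type enrichment, using inverse-variance-weighted replicate averages.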
row,Variant,polymerase ribozyme fitness (log ratio)
1,GACCAAUGUGCCCUCAGUGCUCGAGAACAUCUUCGGAUGCAGAUGAAGCAGGCUUCGGUGGCGCGAUAGCGCCAACGUCCUCAACCUCCAAUGCAUCCCACAACAUGAUGAUGCCUGAAACGCUUUGGUUUUUUG [C8G A18U G44U G47A C102A G120A A121C C124U],-6.31
2,GACCAAUGUGCCCUCAGAGCUCGAGAACAUCUUCGGAUGCAGAGGAGGCGGGCUUCGGUGGCGCGAUAGCGCCAACGUCCUCAACCUCCAAUGCAUCCCACCACAGGAUGAUGCCUGAAAAGCCUUGGUUUUUUG [C8G A50G U106G G120A],1.23
3,GACCAAUGUGCCCUCAGAGCUCGAGAACAUCUUCGGAUGCCGAGGAGGCAGGCUUCGGUGGCUUGAUAGCGCCAACGUCCUCAACCUCCAAUGCAUCCCACCACAUGAUGAUACCUGGAGAGCCUUGGUUUUUUG [C8G A41C G63U C64U G113A A118G],-7.5
4,GACCAAUAUGCCCUCAGAGCUCGAGAACAUCUUCGGAUGCAGAGGAGGCAGGCUUCGGUGGCGCGAUAGCGCCAACGCCCUCAACCUCCAAUGCAUCCCACCACAUGAUGAUGCCUGAAGAGCCUUGGUUUUUUG [C8A U78C],0.0167
5,GACCAAUGUGCCCUCCGAGCUCGAGAACAUCUUCGGAUGCAGAGGAGGCAGGCUUCGGUGGCGCGAUAGCGCCAACGUCCUCAACCACCAAUGCAUCCCACCACAUGAUGAUGCCUGAAGAGCCUUGGUUUUUUG [C8G A16C U87A],-0.437
6,GACCAAUGUGCCCUCAGAGCUCGAGAACAUCUUCGGAUGCAGUGGAGGCAGGCUUCGGUGGCGCGAUAGCGCCAACGUCCUCAACCUGCAAUGCAUCCCACCACAUGAUUAUGCCUGAAUAGCCUUGGUUUUUUG [C8G A43U C88G G110U G120U],-4.09
7,GACCAAUGUGCCCUCAGAGCUCGAGAACAUCUUCGGAUGCAGAGGAGGCAGGCUUCGGUGGCGCGAUAGCGCCAACGUCCUCAACCUCCCUUGCGUCCCACCACAUGAUGAUGCCUGAAGAGCCUUGGUUUUUUG [C8G A90C A91U A95G],-1.14
8,GACCAAUGUGCCCUCAGAGCUCGAGAUCUUCUUCGGAUGCAGAGGAGGCAGGCUUCGGUGGCGCGAUAUCGCCAACGUCCUCAACCUCCAAUGCAUCCCAACACAUGAUGAUGUCUGAAGAGCCUUGGUUUUUUG [C8G A27U A29U G69U C101A C114U],-5.18
9,GACCAAUGUGCCCUCAGAGCUCGAGAACAUCUUCGGAUGCGGAGGAGGCAGGCUUCGGUGGCGCGAUAGCACCAACGGCCUCAACCUCCAAUGCAUCCCACCACAUGAUGAUGCCUGAAGAUCCUUGGUUUUUUG [C8G A41G G71A U78G G122U],-1.62
10,GACCAAUAUGCCCUCAGAGCUCGAGAACAUCUUCGGAUGCAGAGGAGGCAGGCUUCGGUGGCGCGAUAGCGCCAACGCCCUCAACCUCCAAUGCAUCCCACCACAUGAUGAUCCCUGAAGAGCCUUGGUUUUUUG [C8A U78C G113C],-0.875
11,GACCAAUGUGCCCUCAGAGCUCGAGAACAUCUUCGGAUGCAGAGGAGGCAGGCUUCGGUGGCGCGAUAGCGCCAACGUCCUCAACCUCCAUUGCCUCCCACCACAUGAUGAUGCCUGAAGAGCCUUGGUUUUUUG [C8G A91U A95C],-1.32
12,GACCAAUGUGCCCUCAGAGCUCGAGAACAUCUUCGGAUGCAGUGGAGGCAGGCCUCGGUGGCGCGAUAGCGGCAACGUCCUCAACCUCCAAUGCAUCCCACCACAUGAUGAUGACUGGAGAGCCUUGGUUUUUUG [C8G A43U U54C C72G C114A A118G],-5.83
13,GACCAAUGUGCCCUCAGAGCUCGAGAGCAUCUUCGGAUGCAGAGGAGGCAGGCUUCGGUGGCGUGAUAGCGUCAACGUCCUCAACCUCCAAUUCAUCCCACCAAAUGAUGUUGCCUGAAGAGCCCUGGUUUUUUG [C8G A27G C64U C72U G93U C104A A111U U125C],-3.56
14,GACCAAUGUGCCCUCAGAGCUCGAGAACAUCUUCGGAUGCAGAGGAGGCAGGCUUCGGUGGCGCGAUGGCGCCAACGUCCUCAACCUCCAAUGCAUCCCACCACAUGAUGAUGCCUGAAGAGCCUUGGUUUUUUG [C8G A68G],-2.09
15,GACCAAUGUGCCCUCAGAGCUCGAGAACAUCUUCGGAUGCAGAGGUGGCAGGCUUCGGUGGCGCGAUAGCGCCAACGUCCUCAACCUCCAAUGCAUCCCACCAAACGAUGAUGCCCGAAGAGCCUUGGUUUUUUG [C8G A46U C104A U106C U116C],-3.35
16,GACCAAUGUGCCCUCAGUGCUCGAGAACAUCUUCGGAUGCAGAGGAGGCAGGCUUCGGUGGCGCGAUAGCGCCAACGUCCUCAACCUCCAAUGCAUCCCACCACAUGAUGGUGCCUGAAGAGCCUUGAUUUCUUG [C8G A18U A111G G128A U132C],-2.59
17,GACCAAUAUGCCCUCAGAGCUCGAGAACAUCUUCGGAUGCAGAGGAGGCAGGCUUCGGGGGCGCGAUAGCGCCAACGUCCUCAACCUCCAAUGCAUCCCACCACAUGAUGAUGUCUGAAGAGCCUUGGUUUUUUG [C8A U59G C114U],-0.559
18,GACCAAUGUGCCCUCGGAGCUCGAGAACAUCUUCGGAUGCAGAGGAGGCAGGCUUGGGUGGCGCGAUAGCGACAACGUCCUCAACCUCCAAUGCAUCCCCCCACAUGAUGAUGCCUGAAGAGCCUUGGUUUUUUG [C8G A16G C56G C72A A100C],-1.46
19,GACCAAUGUGCCCUCAGAGCUCGAGAACAUCUUCGGAUGCAGCGAAGGCGGGCUUCGGUGGCGCGAUAGCGCCAACGUCCUCAACCUCCAAUGCAUCCCACCACAUGAUGAUUCCUGAACAGCCUUGGUUUUUUG [C8G A43C G45A A50G G113U G120C],-2.24
20,GACCAAUGUGCCCUCUGUGCUCGAGAACAUCUUCGGAUGCAGAGGAGGCAGGCUUCGCUGGCGCGAUAGCGCCAACGUACUCAACCUCCAAUGCAUCCCACCACAUGAAGAUGCCUGAAGAGCCUUGGUUUUUUG [C8G A16U A18U G58C C79A U109A],-6.59
21,GACCAAUGUGCCCUCAGAGCUCGAGAACAUCUUCGGAUGCAGAGGAGGCAGGCUUCGGUGGCGCGAUAGCGCCAACGUCCUCAACCUCCAAUGCAUCCCACCACAUGAUGAUGCCUGAAGGGCCUUGGUUUUUUG [C8G A121G],1.62

row,Variant,polymerase ribozyme fitness (log ratio)
1,GACCAAUAUGCCCUCAGAGCUCGAGAACAUCAUCGGAUGCAGAGGAGGCAGGCUUCGGUGGCGCGAUAGCGCCAACGUCCUCAACCUCCGAUGCAUCCCACCACAUGAUGAUGCCUGAAGAGCCUUGGUUUUUUG [C8A U32A A90G],-4.24
2,GACCAAUGUGCCCUCAGAGCUCGAGAACAUCUUCGGAUGCAGUGGAGGCAGGUUUCGGUGGCGCGAUAGCGCCAACGUCCUCAACCUCCAAUGCAUCCCACCACAAGAUGAUGCCUGAAGAGCCUUGGUUUUUUG [C8G A43U C53U U106A],-1.57
3,GACCAAUAUGCCCUCAGAGCUCGAGAACAUCUUCGGAUGCAGAGGAGGCAGGCUUCGGUGGCGCGAUAGCGCCAACGUCCUCAACCUCCAAUGCAUCCCACCACAUGAUGACGCCUGAAGAGCCAUGGUUUUUUG [C8A U112C U125A],1.71
4,GACCAAUGUGCCCUCAGAGCUCGAGAACAUCUUCGGAUGCAGAGGAGGCAGGCUUCGGUGGCGCGAUAGCGCCAACGUCCUCAACCUCCAAUGCAUCCCACCACAUGAUGAUGCCUGAAGAGCCUUGGUUUUUUG [C8G],0.574
5,GACCAAUGUGCCCUCAGAGCUCGAGAACAUCUUCGGAUGCAGUGGAGGCAGGCUUCGGUGGCGCGAUAGCGCCAACGUCCUCAACCUCCAAUGCAUCCCACCACAUGAUGAUGCCUGAAGAGCCUUGGUUUUUUG [C8G A43U],-0.695
6,GACCAAUGUGCCCUCAGAGCUCGAGAACAUCUUCGGAUGCAGAGGAGGCAGGCUUCGGUGGCGCGAUAGCGCCAACGUCCUCAACCUCCAGUGCAUCCCACCACAUGAUGAUGCUUGAAGAGCCUUGGUUUUUUG [C8G A91G C115U],-0.682
7,GACCAAUGUGCCCUCAGAGCUCGAGUACGUCUUCGGAUGCAGAGGAGGCAGGCUUCGGUGGCGCGAUAGCGCCAACGUCCUCAACCUCCAAUGCAUCCCACCACAUGAUGAUGCCUGAAGAGCCUUGGUUUUUUG [C8G A26U A29G],-3.46
8,GACCAAUGUGACCUCAGAGCUCGAGAACAUCUUCGGAUGCAGAGGAGGCAAGCUUCGGUGGCGCGAUAGCUCCAACGUCCUCAACCUCCAAUGCAUCCCACCACAGGAUGAUUCCUGAAGAGCCGUGGUUUUUUG [C8G C11A G51A G71U U106G G113U U125G],-6.93
9,GACCAAUGUGGCCUCAGAGCUCGAGAACAUCUUCGGAUGCCGAGGAGGAAGGCUUCGGUGGCGCGAUAGCGCCAACGUCCUCAACCUCCAAUGCAUCCCACCACAUGAUGAUGCCUGAAGAGCCUUGGUUUUUUG [C8G C11G A41C C49A],-0.887
10,GACCAAUAUGCCCUCAGAGCUCGAGAACAUCUUCGGAUGCAGAGGAGGCAGGCUUCGGUGGCGCGAUAGCGCCAACGUCCUCAACCUCCAAUGCAUCCCACCACAUGAUGAAGCCUGAAGAGCCUUGUUUUUUUG [C8A U112A G128U],0.095
11,GACCAAUGUGCCCUCAGAGCUCGAGAACAUCUUCGGAUGCAGAGGAGGCAGGCUUCGGUGGCGCGAUAGCGCCAACGUCCUCAACCUCCAAUGCAUCCCACCACAUGAUGAUGCCUGUAGAGCCUUGGUUUUUUG [C8G A118U],1.5
12,GACCAAUGUGCCCUCAGAGCUCGAGAACAUCUUCGGAUGCAGAGGAGGCCGGCUUCGGUGGCGCGAUAGCGCCAACGUUCUCAACCUCCUAUGCAUCCCACCACAUGAUGAUGCCUGAAGAGCCUUGGUUUUUUG [C8G A50C C79U A90U],-1.96
13,GACCAAUGUGCCCUCAGAGCUCGAGAACAUCUUCGGAUGCAGAGGAGGCAGGCUUCGGUGGCGCGAUAGCGCCAACGUCCUCAACCUCCAAUGCAUCCCACCACAUGAUGUUGCCUGAAGAGCCUUGGUUUUUUG [C8G A111U],-1.64
14,GACCAAUGUGCCCUCAGAGCUCGAGAACAUCUUCGGUUGCAGAGGAGGUAGGCGUCGGUGGCGCGAUAGCGCCAACGUCCUCAACCUCCAAUGCAUCCCACCACAUGAUGAUGCCUGAAGAGCCUUGGUUUUGUG [C8G A37U C49U U54G U133G],-1.23
15,GACCAAUAUGCCCUCAGAGCUCGAGAACAUCUUCGGAAGCAGAGGCGGCAGGCUUCGGUGGCGCGAUAGCGCCAACGUCCUCAACCUCCAAUGCAUCCCACCACAUGAUGAUGCCUGAAGAGCCUUGGUUUUUUG [C8A U38A A46C],-1.09
16,GACCAAUGUGCCCUCAGCGCUCGAGAACAUCUUCGGCUGCAGAGGAGGCAGGCUUCGGUGGCGCGAUAGCGCCAACGUCCUCAACCUCCAAUGCAUCCCACCACAUGAUGAUGCCUGAACAGCCUUGGUUUUUUG [C8G A18C A37C G120C],0.00671
17,GACCAAUGUGCCCUCAGAGCUCGAGAACAUCUUCGGAUGCAGAGGAGGCAGGCUUCGGUGGCGCGAUAGCGCCUACGUCCUCAACCUCCAAUGCAUCCCACCACAUGAUGAUGCCUGAAGAGCCUUGGUUUUUUG [C8G A74U],0.0385
18,GACCAAUGUGCCCUCAGAGCUCGAGAACAUCUUCGGAUGCAGAGGAGGCCGGCUUCGGUGGCGCGAUAGCGCCAACGUCCUCAACCUCCAAUGCAUCCCACCACAUGAUGAUGCCUGAAGAGCCUUGGUUUUUUG [C8G A50C],0.0345
19,GACCAAUGUGCCCUCAGAGCUCGAGAACAUCUUCGGAUGCAGAGGCGGCAGGCUUCGGUGGCGCGAUAGCGCCAACGUCCACAACCUUCAAUGCAUCCCACCACAUGAUGAUACCUGAAGAGCCUUGGUUUUUUG [C8G A46C U81A C88U G113A],-1.64
20,GACCAAUGUGCCCUCAGAGCUCGAGAACAUCUUCGGAUGCAGAGGGGGCAGGCUUCGGUGGCGCGAUAGCGCCAACGUCCUCGACCUCCAAUGCAUCCCACCACAUGAUGAUGCCUGAAGAGCCUGAGUUUUUUG [C8G A46G A83G U126G G127A],-1.72
21,GACCAAUGUGCCCUCAGAGCUCGAGAACAUCUUCGGAUGCAGAGGAGGCAGGCUUCGGUGGCGCGAUAGCGCCAACGUCCUCAACCUCCAAUGCAUCCCACCACAUGAUGCUUCCUGAAGAGCCUUGGUUUUUUG [C8G A111C G113U],-3.45
